Reference: article PMC3763551, “The tRNA recognition mechanism of the minimalist SPOUT methyltransferase, TrmL” (Nucleic Acids Research, 2013)

B1: tRNA (Um34/Cm34) methyltransferase TrmL from E. coli, wild type (enzyme, UniProt P0AGJ7 1-157, looked up)
chain: MLNIVLYEPEIPPNTGNIIRLCANTGFRLHIIEPMGFAWDDKRLRRAGLDYHEFTAVTRHHDYRAFLEAENPQRLFALTTKGTPAHSAVSYQDGDYLMFGPETRGLPASILDALPAEQKIRIPMVPDSRSMNLSNAVSVVVYEAWRQLGYPGAVLRD
notes: TrmL, tRNA (Um34/Cm34) methyltransferase, E. coli; gene amplified from the genome of E. coli MT102; 157 amino acids as printed; also called EcTrmL; Yibk; source: E. coli BL21 (DE3), pET30b, purified (Ni-NTA, Superdex 75 gel filtration)
B2: EcTrmL-R46E (enzyme, E. coli, UniProt P0AGJ7 1-157, looked up)
chain: MLNIVLYEPEIPPNTGNIIRLCANTGFRLHIIEPMGFAWDDKRLREAGLDYHEFTAVTRHHDYRAFLEAENPQRLFALTTKGTPAHSAVSYQDGDYLMFGPETRGLPASILDALPAEQKIRIPMVPDSRSMNLSNAVSVVVYEAWRQLGYPGAVLRD
notes: TrmL, E. coli, 157 amino acids, with R46E; source: E. coli BL21 (DE3), pET30b, purified (Ni-NTA, Superdex 75 gel filtration)
B3: EcTrmL-R20E (enzyme, E. coli, UniProt P0AGJ7 1-157, looked up)
chain: MLNIVLYEPEIPPNTGNIIELCANTGFRLHIIEPMGFAWDDKRLRRAGLDYHEFTAVTRHHDYRAFLEAENPQRLFALTTKGTPAHSAVSYQDGDYLMFGPETRGLPASILDALPAEQKIRIPMVPDSRSMNLSNAVSVVVYEAWRQLGYPGAVLRD
notes: TrmL, E. coli, 157 amino acids, with R20E; source: E. coli BL21 (DE3), pET30b, purified (Ni-NTA, Superdex 75 gel filtration)
B4: EcTrmL-R74E (enzyme, E. coli, UniProt P0AGJ7 1-157, looked up)
chain: MLNIVLYEPEIPPNTGNIIRLCANTGFRLHIIEPMGFAWDDKRLRRAGLDYHEFTAVTRHHDYRAFLEAENPQELFALTTKGTPAHSAVSYQDGDYLMFGPETRGLPASILDALPAEQKIRIPMVPDSRSMNLSNAVSVVVYEAWRQLGYPGAVLRD
notes: TrmL, E. coli, 157 amino acids, with R74E; source: E. coli BL21 (DE3), pET30b, purified (Ni-NTA, Superdex 75 gel filtration)
B5: EcTrmL-R43E (enzyme, E. coli, UniProt P0AGJ7 1-157, looked up)
chain: MLNIVLYEPEIPPNTGNIIRLCANTGFRLHIIEPMGFAWDDKELRRAGLDYHEFTAVTRHHDYRAFLEAENPQRLFALTTKGTPAHSAVSYQDGDYLMFGPETRGLPASILDALPAEQKIRIPMVPDSRSMNLSNAVSVVVYEAWRQLGYPGAVLRD
notes: TrmL, E. coli, 157 amino acids, with R43E; source: E. coli BL21 (DE3), pET30b, purified (Ni-NTA, Superdex 75 gel filtration)
B6: EcTrmL-R59E (enzyme, E. coli, UniProt P0AGJ7 1-157, looked up)
chain: MLNIVLYEPEIPPNTGNIIRLCANTGFRLHIIEPMGFAWDDKRLRRAGLDYHEFTAVTEHHDYRAFLEAENPQRLFALTTKGTPAHSAVSYQDGDYLMFGPETRGLPASILDALPAEQKIRIPMVPDSRSMNLSNAVSVVVYEAWRQLGYPGAVLRD
notes: TrmL, E. coli, 157 amino acids, with R59E; source: E. coli BL21 (DE3), pET30b, purified (Ni-NTA, Superdex 75 gel filtration)
B7: EcTrmL-R64E (enzyme, E. coli, UniProt P0AGJ7 1-157, looked up)
chain: MLNIVLYEPEIPPNTGNIIRLCANTGFRLHIIEPMGFAWDDKRLRRAGLDYHEFTAVTRHHDYEAFLEAENPQRLFALTTKGTPAHSAVSYQDGDYLMFGPETRGLPASILDALPAEQKIRIPMVPDSRSMNLSNAVSVVVYEAWRQLGYPGAVLRD
notes: TrmL, E. coli, 157 amino acids, with R64E; source: E. coli BL21 (DE3), pET30b, purified (Ni-NTA, Superdex 75 gel filtration)
B8: EcTrmL-R28E (enzyme, E. coli, UniProt P0AGJ7 1-157, looked up)
chain: MLNIVLYEPEIPPNTGNIIRLCANTGFELHIIEPMGFAWDDKRLRRAGLDYHEFTAVTRHHDYRAFLEAENPQRLFALTTKGTPAHSAVSYQDGDYLMFGPETRGLPASILDALPAEQKIRIPMVPDSRSMNLSNAVSVVVYEAWRQLGYPGAVLRD
notes: TrmL, E. coli, 157 amino acids, with R28E; source: E. coli BL21 (DE3), pET30b, purified (Ni-NTA, Superdex 75 gel filtration)
B9: EcTrmL-R104E (enzyme, E. coli, UniProt P0AGJ7 1-157, looked up)
chain: MLNIVLYEPEIPPNTGNIIRLCANTGFRLHIIEPMGFAWDDKRLRRAGLDYHEFTAVTRHHDYRAFLEAENPQRLFALTTKGTPAHSAVSYQDGDYLMFGPETEGLPASILDALPAEQKIRIPMVPDSRSMNLSNAVSVVVYEAWRQLGYPGAVLRD
notes: TrmL, E. coli, 157 amino acids, with R104E; source: E. coli BL21 (DE3), pET30b, purified (Ni-NTA, Superdex 75 gel filtration)
B10: EcTrmL-K81E (enzyme, E. coli, UniProt P0AGJ7 1-157, looked up)
chain: MLNIVLYEPEIPPNTGNIIRLCANTGFRLHIIEPMGFAWDDKRLRRAGLDYHEFTAVTRHHDYRAFLEAENPQRLFALTTEGTPAHSAVSYQDGDYLMFGPETRGLPASILDALPAEQKIRIPMVPDSRSMNLSNAVSVVVYEAWRQLGYPGAVLRD
notes: TrmL, E. coli, 157 amino acids, with K81E; source: E. coli BL21 (DE3), pET30b, purified (Ni-NTA, Superdex 75 gel filtration)
B11: EcTrmL-R129E (enzyme, E. coli, UniProt P0AGJ7 1-157, looked up)
chain: MLNIVLYEPEIPPNTGNIIRLCANTGFRLHIIEPMGFAWDDKRLRRAGLDYHEFTAVTRHHDYRAFLEAENPQRLFALTTKGTPAHSAVSYQDGDYLMFGPETRGLPASILDALPAEQKIRIPMVPDSESMNLSNAVSVVVYEAWRQLGYPGAVLRD
notes: TrmL, E. coli, 157 amino acids, with R129E; source: E. coli BL21 (DE3), pET30b, purified (Ni-NTA, Superdex 75 gel filtration)
B12: EcTrmL-K42E (enzyme, E. coli, UniProt P0AGJ7 1-157, looked up)
chain: MLNIVLYEPEIPPNTGNIIRLCANTGFRLHIIEPMGFAWDDERLRRAGLDYHEFTAVTRHHDYRAFLEAENPQRLFALTTKGTPAHSAVSYQDGDYLMFGPETRGLPASILDALPAEQKIRIPMVPDSRSMNLSNAVSVVVYEAWRQLGYPGAVLRD
notes: TrmL, E. coli, 157 amino acids, with K42E; source: E. coli BL21 (DE3), pET30b, purified (Ni-NTA, Superdex 75 gel filtration)
B13: EcTrmL-R45E (enzyme, E. coli, UniProt P0AGJ7 1-157, looked up)
chain: MLNIVLYEPEIPPNTGNIIRLCANTGFRLHIIEPMGFAWDDKRLERAGLDYHEFTAVTRHHDYRAFLEAENPQRLFALTTKGTPAHSAVSYQDGDYLMFGPETRGLPASILDALPAEQKIRIPMVPDSRSMNLSNAVSVVVYEAWRQLGYPGAVLRD
notes: TrmL, E. coli, 157 amino acids, with R45E; source: E. coli BL21 (DE3), pET30b, purified (Ni-NTA, Superdex 75 gel filtration)

How the values were obtained:
[1] = target: T1, EcTrmL (Escherichia coli, UniProt P0AGJ7, R104E); assay: isothermal titration calorimetry, one-site model; format: binding
T1 construct: gene trmL

[2] = target: T2, EcTrmL (Escherichia coli, UniProt P0AGJ7, K42E); assay: isothermal titration calorimetry, one-site model; format: binding
T2 construct: gene trmL

[3] = target: T3, EcTrmL (Escherichia coli, UniProt P0AGJ7, R129E); assay: isothermal titration calorimetry, one-site model; format: binding
T3 construct: gene trmL

[4] = target: T4, EcTrmL (Escherichia coli, UniProt P0AGJ7, R20E); assay: isothermal titration calorimetry, one-site model; format: binding
T4 construct: gene trmL

[5] = target: T5, EcTrmL (Escherichia coli, UniProt P0AGJ7, R43E); assay: isothermal titration calorimetry, one-site model; format: binding
T5 construct: gene trmL

[6] = target: T6, EcTrmL (Escherichia coli, UniProt P0AGJ7, R59E); assay: isothermal titration calorimetry, one-site model; format: binding
T6 construct: gene trmL

[7] = target: T7, EcTrmL (Escherichia coli, UniProt P0AGJ7, K81E); assay: isothermal titration calorimetry, one-site model; format: binding
T7 construct: gene trmL

[8] = target: T8, EcTrmL (Escherichia coli, UniProt P0AGJ7, R45E); assay: isothermal titration calorimetry, one-site model; format: binding
T8 construct: gene trmL

[9] = target: T9, EcTrmL (Escherichia coli, UniProt P0AGJ7, R46E); assay: isothermal titration calorimetry, one-site model; format: binding
T9 construct: gene trmL

[10] = target: the molecule itself; assay: SEC; analytical gel filtration, Superdex 75 (10/30), 20 mM Tris-HCl pH 7.5, 100 mM NaCl, 5 mM MgCl2, 5 mM beta-Me, 300 ul injected, 0.5 ml/min, against standard proteins
[11] = target: the molecule itself; assay: not stated; oligomeric state of the purified Glu single mutants in solution; the method is not named for this statement

Molecule	stoichiometry N [11]	other results
Nc1ncnc2c1ncn2[C@@H]1O[C@H](CSCC[C@H](N)C(=O)O)[C@@H](O)[C@H]1O [SAH, S-adenosyl-homocysteine]		Kd [1]: 33 µM; Kd [2]: 20 µM; Kd [3]: 19 µM; Kd [4]: 45 µM; Kd [5]: 39 µM; Kd [6]: 27 µM; Kd [7]: 30 µM; Kd [8]: 29 µM; Kd [9]: 29 µM
B1		stoichiometry N [10]: 2
B2	2	
B3	2	
B4	2	
B5	2	
B6	2	
B7	2	
B8	2	
B9	2	
B10	2	
B11	2	
B12	2	
B13	2	
